Assays:
lysozyme [1] = target: T1, lysozyme (Gallus gallus, UniProt P00698); test: Fluorescence quenching studies; assay type: binding, chicken
T1 construct: lysozyme from chicken egg white; purchased Sigma-Aldrich; host or cells: chicken egg white (natural source)
Method: The fluorescence emission spectra of the HA-EGCG/lysozyme particles, HA/lysozyme mixtures, free lysozyme alone, free HA-EGCG carrier or free HA alone were measured at an excitation wavelength of 280 nm using a fluorescence spectrophotometer (Hitachi, Japan). Difference spectra between the HA-EGCG/lysozyme particles and HA-EGCG were obtained to determine the net fluorescence of lysozyme in particles of varying HA-EGCG concentrations. The same was done for HA/lysozyme mixtures.

lysozyme [2] = target: T1, lysozyme; test: Lysozyme activity assay (M. lysodeikticus turbidity); assay type: biochemical, chicken
Method: To determine the activity of lysozyme, 20 μl of sample containing either free lysozyme or HA-EGCG/lysozyme particles was added to a well of a 96-well assay plate, followed by 100 μl of M. lysodeikticus (0.15% (w/v) in PBS). The decrease in turbidity was monitored by a Tecan Infinite 200 microplate reader by measuring the absorbance of the sample at 450 nm at room temperature every 3 min for 15 min. The absorbance decay plot was fitted to a linear equation, and the slopes were used to determine iysozyme activity. Regarding the restoration of activity of lysozyme that is complexed with HA-EGCG, the following protocol was used: the HA-EGCG/lysozyme particles were first allowed to self-assemble for 10 min at room temperature, with free lysozyme diluted with PBS as a control. A constant volume of Triton-X of different concentrations was then added to each sample (to a final concentration of 0.001, 0.01 or 0.1% w/v), incubated at room temperature for a further 5 min before the lysozyme substrate, M. lysodeikticus, was added, and the absorbance monitored as described above.

HCT-116 cells = test: Cell viability studies (AlamarBlue); assay type: cell-based, human; details: delivered together with chloroquine; data not shown
Method: HCT-116 human colon carcinoma cells were obtained from ATCC, and cultured in McCoy's 5A medium supplemented with 10% FBS and 100 units/mL of penicillin/streptomycin.
HCT-116 cells were seeded at 10,000 cells per well in 96-well microplates with complete growth medium and left to attach for 48 h. Test reagents were prepared by first mixing the linear PEI (polyethylenimine) or chloroquine solution (fixed at 100 μM)) with Granzyme B (fixed at 2 μg/ml) for 15 min before adding HA-EGCG solution to the mixture and allow complexation to take place for 45 min. The medium in the wells was then aspirated and the cells were treated with the respective reagents for 48 h (all dilutions were made in serum-free medium). Cell viability was analyzed using AlamarBlue. Before analysis, the medium was aspirated and the cells were gently washed with PBS once before a mixture of 10 μl of alamarblue reagent with 100 μl of serum-containing medium was added to each well. The cells were incubated for 2 h and the fluorescence emission of each well was measured using a Tecan infinite Microplate Reader. The viabilities of treated cells were evaluated as a percentage of the negative control. Each data set is an average of 4 repeats.

T1 sequence (P00698 19-147): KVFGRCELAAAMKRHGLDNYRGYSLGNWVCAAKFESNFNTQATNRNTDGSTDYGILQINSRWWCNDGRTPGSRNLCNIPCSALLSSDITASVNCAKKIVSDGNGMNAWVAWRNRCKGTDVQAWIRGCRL

(−)-epigallocatechin gallate [EGCG]
quenching of intrinsic lysozyme fluorescence (lysozyme [1]; EX 280 nm, concentration-dependent (FIG. 5)): can quench the intrinsic fluorescence of lysozyme
quenching of intrinsic lysozyme fluorescence at the same EGCG concentration (lysozyme [1]; free EGCG vs HA-EGCG (FIG. 7)): quenches intrinsic lysozyme fluorescence to a smaller degree than HA-EGCG

free lysozyme: lysozyme from chicken egg white, model protein
apparent lysozyme activity (lysozyme [2]; 0.001% w/v Triton-X, % of original activity of free lysozyme (FIG. 9b)): 140%
maximum apparent lysozyme activity (plateau) (lysozyme [2]; 0.01% and 0.1% Triton-X (FIG. 9b)): about 160%

B1: Granzyme: protease secreted by cytotoxic T lymphocytes, activates caspase and induces apoptosis (protein, UniProt P04187 21-247, looked up)
Granzyme B(G,H): IIGGHEVKPHSRPYMALLSIKDQQPEAICGGFLIREDFVLTAAHCEGSIINVTLGAHNIKEQEKTQQVIPMVKCIPHPDYNPKTFSNDIMLLKLKSKAKRTRAVRPLNLPRRNVNVKPGDVCYVAGWGRMAPMGKYSNTLQEVELTVQKDRECESYFKNRYNKTNQICAGDPKTKRASFRGDSGGPLVCKKVAAGIVSYGYKDGSPPRAFTKVSSFLSWIKKTMKSS
cytotoxicity in HCT-116 cells (HCT-116 cells): induced cytotoxicity in HCT-116 cells

Source: US9226899B2, “Particulate hyaluronic acid and flavonoid formulations for cellular delivery of bioactive agents” (AGENCY FOR SCIENCE, TECHNOLOGY AND RESEARCH, priority 2009, dated 2016)
